Experimental data reported in the supplement of paper PMC9112550, “Optimization of the antimicrobial peptide Bac7 by deep mutational scanning” (BMC Biology, 2022).

test system: Escherichia coli TOP10; test: shrunken log2 fold change of peptide-encoding DNA abundance (4.5 h post-induction vs induction); higher = less antimicrobial activity (less host growth inhibition); details: time post-induction: 4.5 h; library: site-saturation at positions 5, 18, 19, 20
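Also: peptides expressed intracellularly from a pBAD plasmid library in pooled LB shake-flask culture, induced with 0.3% L-arabinose, DNA abundance read by NGS, three biological replicates, DESeq2 with apeglm shrinkage.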

Sequence | shrunken log2 fold change
RRIRVRPPRLPRPRPRPMRSPRP | 0.604
RRIRVRPPRLPRPRPRPMSQPRP | -0.296
RRIRVRPPRLPRPRPRPMTMPRP | -0.0831
RRIRVRPPRLPRPRPRPMVPPRP | -0.189
RRIRVRPPRLPRPRPRPNCFPRP | -0.158
RRIRVRPPRLPRPRPRPNCNPRP | -0.273
RRIRVRPPRLPRPRPRPNCWPRP | 0.0329
RRIRVRPPRLPRPRPRPNDQPRP | -0.0759
RRIRVRPPRLPRPRPRPNEQPRP | -0.232
RRIRVRPPRLPRPRPRPNFTPRP | 0.0054
RRIRVRPPRLPRPRPRPNGRPRP | 0.222
RRIRVRPPRLPRPRPRPNHLPRP | -0.694
RRIRVRPPRLPRPRPRPNHYPRP | -0.501
RRIRVRPPRLPRPRPRPNIMPRP | -0.512
RRIRVRPPRLPRPRPRPNITPRP | -0.808
RRIRVRPPRLPRPRPRPNKLPRP | -0.325
RRIRVRPPRLPRPRPRPNKTPRP | 0.172
RRIRVRPPRLPRPRPRPNMRPRP | -0.124
RRIRVRPPRLPRPRPRPNNFPRP | 1.9
RRIRVRPPRLPRPRPRPNNHPRP | -0.454
RRIRVRPPRLPRPRPRPNNNPRP | -0.661
RRIRVRPPRLPRPRPRPNQAPRP | 0.0159
RRIRVRPPRLPRPRPRPNQFPRP | -0.349
RRIRVRPPRLPRPRPRPNQKPRP | -0.115
RRIRVRPPRLPRPRPRPNQRPRP | 0.0593

Sequence | shrunken log2 fold change
RRIRVRPPRLPRPRPRPNSIPRP | 0.0266
RRIRVRPPRLPRPRPRPNSMPRP | -0.575
RRIRVRPPRLPRPRPRPNSSPRP | -0.0634
RRIRVRPPRLPRPRPRPNTCPRP | -0.101
RRIRVRPPRLPRPRPRPNTPPRP | -0.0576
RRIRVRPPRLPRPRPRPNTSPRP | -0.391
RRIRVRPPRLPRPRPRPNVSPRP | -0.0331
RRIRVRPPRLPRPRPRPNWGPRP | 0.119
RRIRVRPPRLPRPRPRPNWKPRP | -0.0426
RRIRVRPPRLPRPRPRPNWMPRP | -0.235
RRIRVRPPRLPRPRPRPPAPPRP | 0.794
RRIRVRPPRLPRPRPRPPCAPRP | 0.238
RRIRVRPPRLPRPRPRPPCGPRP | 0.297
RRIRVRPPRLPRPRPRPPCKPRP | 0.106
RRIRVRPPRLPRPRPRPPCLPRP | -0.108
RRIRVRPPRLPRPRPRPPCQPRP | 0.0844
RRIRVRPPRLPRPRPRPPCRPRP | 2.01
RRIRVRPPRLPRPRPRPPFEPRP | 0.26
RRIRVRPPRLPRPRPRPPFMPRP | 1.97
RRIRVRPPRLPRPRPRPPGFPRP | 0.842
RRIRVRPPRLPRPRPRPPNEPRP | 0.345
RRIRVRPPRLPRPRPRPPQSPRP | 0.249
RRIRVRPPRLPRPRPRPPRFPRP | 0.577
RRIRVRPPRLPRPRPRPPRRPRP | 0.491
RRIRVRPPRLPRPRPRPPSAPRP | 0.47

Sequence | shrunken log2 fold change
RRIRVRPPRLPRPRPRPPSWPRP | 0.34
RRIRVRPPRLPRPRPRPPVLPRP | -0.201
RRIRVRPPRLPRPRPRPPWCPRP | 0.497
RRIRVRPPRLPRPRPRPPWFPRP | 0.0493
RRIRVRPPRLPRPRPRPPWHPRP | 0.164
RRIRVRPPRLPRPRPRPPYHPRP | -0.284
RRIRVRPPRLPRPRPRPPYTPRP | -0.268
RRIRVRPPRLPRPRPRPQANPRP | 0.0748
RRIRVRPPRLPRPRPRPQAPPRP | 0.167
RRIRVRPPRLPRPRPRPQCHPRP | -0.0451
RRIRVRPPRLPRPRPRPQCWPRP | 0.198
RRIRVRPPRLPRPRPRPQDPPRP | 0.0381
RRIRVRPPRLPRPRPRPQEFPRP | -0.06
RRIRVRPPRLPRPRPRPQELPRP | -0.0343
RRIRVRPPRLPRPRPRPQGAPRP | 0.168
RRIRVRPPRLPRPRPRPQHYPRP | -0.718
RRIRVRPPRLPRPRPRPQKAPRP | -0.0576
RRIRVRPPRLPRPRPRPQKDPRP | -0.187
RRIRVRPPRLPRPRPRPQKFPRP | -0.278
RRIRVRPPRLPRPRPRPQKGPRP | -0.036
RRIRVRPPRLPRPRPRPQKKPRP | -0.117
RRIRVRPPRLPRPRPRPQMRPRP | 0.458
RRIRVRPPRLPRPRPRPQNDPRP | -0.292
RRIRVRPPRLPRPRPRPQNHPRP | -0.608
RRIRVRPPRLPRPRPRPQPYPRP | -0.486
